Data taken from US20130164281A1 (SAMSUNG ELECTRONICS, published 2013).
Substitutions are numbered along the chain they refer to. One block for each binder: values may come before it.

Legend:
[1] = target: T1, human c-Met/Fc fusion protein (R&D Systems) (human, UniProt P08581 25-932); assay: competition ELISA on coated c-Met/Fc; competitor biotinylated chAbF46 (0.1 ug/ml)
T1 construct: Bought reagent; also called c-Met/Fc chimera (R&D Systems Cat. No. 358-MT/CF); not shown: Fc part of the bought fusion
Protocol: The antigens were coated by overnight incubation at a temperature of 4° C. using Nunc Immuno MaxiSort 96 well flat bottom microtiter plate (Fisher Cat. No. DIS-971-030J) and 1.0 μg/ml and 100 μl/well of c-Met/Fc chimera (R&D Systems Cat. No. 358-MT/CF). chAbF46 and 20 humanized antibodies were diluted and at a concentration of 10 μg/ml to 0.078 μg/ml, they were mixed with biotinylated chAbF46 (0.1 μg/ml, final conc.), followed by incubation at a temperature of 37° C. for 2 hours. The amount of biotinylated chAbF46 antibody binding to the antigen was measured using streptavidin-HRP (Sigma cat. No S5512) and an OPD substrate (Sigma Cat. No. P9187), and IC50 data were calculated from the results and the data are shown in Table 1 below (all units in nM).

[2] = target: T2, human c-Met protein antigen (human, UniProt P08581 25-932, limits assumed); assay: Biacore SPR, antibody immobilized on CM5 chip, human c-Met protein injected
T2 construct: also called c-Met antigen
T2 sequence (P08581 25-932 limits assumed): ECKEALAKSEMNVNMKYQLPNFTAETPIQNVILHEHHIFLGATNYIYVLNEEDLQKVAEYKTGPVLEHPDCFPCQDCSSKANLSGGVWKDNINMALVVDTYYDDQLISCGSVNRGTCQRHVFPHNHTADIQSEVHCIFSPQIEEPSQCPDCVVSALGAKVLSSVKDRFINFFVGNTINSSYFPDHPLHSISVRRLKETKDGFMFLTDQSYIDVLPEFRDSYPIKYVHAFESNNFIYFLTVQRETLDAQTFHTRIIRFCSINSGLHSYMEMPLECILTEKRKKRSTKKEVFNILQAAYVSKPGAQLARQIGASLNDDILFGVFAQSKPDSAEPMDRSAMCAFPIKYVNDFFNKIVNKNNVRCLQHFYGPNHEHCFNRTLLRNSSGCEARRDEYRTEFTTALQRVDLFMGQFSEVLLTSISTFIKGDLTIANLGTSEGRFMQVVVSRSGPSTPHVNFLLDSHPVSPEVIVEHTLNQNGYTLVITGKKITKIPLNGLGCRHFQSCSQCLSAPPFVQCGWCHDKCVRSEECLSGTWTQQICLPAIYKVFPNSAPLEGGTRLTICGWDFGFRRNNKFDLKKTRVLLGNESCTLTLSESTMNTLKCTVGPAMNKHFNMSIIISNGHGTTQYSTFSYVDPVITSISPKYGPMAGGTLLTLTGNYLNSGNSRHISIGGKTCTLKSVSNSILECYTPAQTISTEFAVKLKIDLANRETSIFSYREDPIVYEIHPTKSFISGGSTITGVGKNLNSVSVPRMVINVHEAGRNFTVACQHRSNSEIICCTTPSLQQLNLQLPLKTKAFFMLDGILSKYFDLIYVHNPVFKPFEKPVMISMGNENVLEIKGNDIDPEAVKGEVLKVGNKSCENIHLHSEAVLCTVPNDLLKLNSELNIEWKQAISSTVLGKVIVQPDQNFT

T1 sequence (P08581 25-932 limits assumed): as above

B1: deimmunized humanized antibody huAbF46 including a combination of AT-VH3 and AT-Vk2 (antibody, IgG1, V domains shown)
VH: EVQLVESGGGLVQPGGSLRLSCATSGFTFTDYYMSWVRQPPGKGLEWLGFIRNKANGYTTEYSASVKGRFTISRDNSKSTLYLQMNSLRAEDTATYYCARDNWFAYWGQGTLVTVSS
VL: DILMTQSPSSLSASVGDRVTITCKSSQSLLASGNQNNYLAWHQQKPGKAPKMLIIWASTRVSGVPDRFIGSGSGTDFTLTISSLQAEDVAVYYCQQSYSAPLTFGQGTKLEIK
notes: expressed from pANTVhG1 and pANTVk vectors (IgG1, kappa) in HEK293 cells; also called AT-VH3/AT-Vk2
IC50 [1]: 4.5 nM

B2: chimeric antibody chAbF46 (antibody, V domains shown)
VH: B1 VH with Q3K, G44A, K78Q, T80I, N86D, S87T, T93S, S117A
VL: DILMTQSPSSLTVSAGEKVTMSCKSSQSLLASGNQNNYLAWHQQKPGRSPKMLIIWASTRVSGVPDRFIGSGSGTDFTLTINSVQAEDLAVYYCQQSYSAPLTFGAGTKLELKR
Kd [2]: 4.27 nM

B3: deimmunized humanized antibody huAbF46 including a combination of AT-VH2 and AT-Vk2 (antibody, IgG1, V domains shown)
VH: B1 VH with Q3K
VL: B1 VL
notes: expressed from pANTVhG1 and pANTVk vectors (IgG1, kappa) in HEK293 cells; also called AT-VH2/AT-Vk2
IC50 [1]: 1.28 nM

B4: deimmunized humanized antibody huAbF46 including a combination of AT-VH2 and AT-Vk1 (antibody, IgG1, V domains shown)
VH: B1 VH with Q3K
VL: B1 VL with S12T, I21M
notes: expressed from pANTVhG1 and pANTVk vectors (IgG1, kappa) in HEK293 cells; also called AT-VH2/AT-Vk1
IC50 [1]: 2.3 nM

B5: deimmunized humanized antibody huAbF46 including a combination of AT-VH3 and AT-Vk1 (antibody, IgG1, V domains shown)
VH: B1 VH
VL: B1 VL with S12T, I21M
notes: expressed from pANTVhG1 and pANTVk vectors (IgG1, kappa) in HEK293 cells; also called AT-VH3/AT-Vk1
IC50 [1]: 3.53 nM

B10: deimmunized humanized antibody huAbF46 including a combination of AT-VH4 and AT-Vk3 (antibody, IgG1, V domains shown)
VH: B1 VH with S79N
VL: B1 VL with L3Q
notes: expressed from pANTVhG1 and pANTVk vectors (IgG1, kappa) in HEK293 cells; also called AT-VH4/AT-Vk3
IC50 [1]: 1.99 nM

B11: deimmunized humanized antibody huAbF46 including a combination of AT-VH1 and AT-Vk3 (antibody, IgG1, V domains shown)
VH: B1 VH with Q3K, T93S
VL: B1 VL with L3Q
notes: expressed from pANTVhG1 and pANTVk vectors (IgG1, kappa) in HEK293 cells; also called AT-VH1/AT-Vk3
IC50 [1]: 2.3 nM

B13: deimmunized humanized antibody huAbF46 including a combination of AT-VH4 and AT-Vk2 (antibody, IgG1, V domains shown)
VH: B1 VH with S79N
VL: B1 VL
notes: expressed from pANTVhG1 and pANTVk vectors (IgG1, kappa) in HEK293 cells; also called AT-VH4/AT-Vk2
IC50 [1]: 3.13 nM

B14: deimmunized humanized antibody huAbF46 including a combination of AT-VH3 and AT-Vk4 (antibody, IgG1, V domains shown)
VH: B1 VH
VL: B1 VL with L3Q, I69S
notes: expressed from pANTVhG1 and pANTVk vectors (IgG1, kappa) in HEK293 cells; also called AT-VH3/AT-Vk4
IC50 [1]: 1.81 nM

B17: deimmunized humanized antibody huAbF46 including a combination of AT-VH4 and AT-Vk1 (antibody, IgG1, V domains shown)
VH: B1 VH with S79N
VL: B1 VL with S12T, I21M
notes: expressed from pANTVhG1 and pANTVk vectors (IgG1, kappa) in HEK293 cells; also called AT-VH4/AT-Vk1
IC50 [1]: 2.4 nM

B18: deimmunized humanized antibody huAbF46 including a combination of AT-VH5 and AT-Vk1 (antibody, IgG1, V domains shown)
VH: B1 VH with S79N, T95V
VL: B1 VL with S12T, I21M
notes: expressed from pANTVhG1 and pANTVk vectors (IgG1, kappa) in HEK293 cells; also called AT-VH5/AT-Vk1
IC50 [1]: 2.04 nM

B20: deimmunized humanized antibody huAbF46 including a combination of AT-VH3 and AT-Vk3 (antibody, IgG1, V domains shown)
VH: B1 VH
VL: B1 VL with L3Q
notes: expressed from pANTVhG1 and pANTVk vectors (IgG1, kappa) in HEK293 cells; also called AT-VH3/AT-Vk3
IC50 [1]: 5.51 nM

Further lines, results first:

IC50 [1]: 1.62 nM
B6: deimmunized humanized antibody huAbF46 including a combination of AT-VH5 and AT-Vk4 (antibody, IgG1, V domains shown)
VH: B1 VH with S79N, T95V
VL: B1 VL with L3Q, I69S
notes: expressed from pANTVhG1 and pANTVk vectors (IgG1, kappa) in HEK293 cells; also called AT-VH5/AT-Vk4

IC50 [1]: 1.51 nM
B7: deimmunized humanized antibody huAbF46 including a combination of AT-VH1 and AT-Vk4 (antibody, IgG1, V domains shown)
VH: B1 VH with Q3K, T93S
VL: B1 VL with L3Q, I69S
notes: expressed from pANTVhG1 and pANTVk vectors (IgG1, kappa) in HEK293 cells; also called AT-VH1/AT-Vk4

IC50 [1]: 1.49 nM
B8: deimmunized humanized antibody huAbF46 including a combination of AT-VH1 and AT-Vk2 (antibody, IgG1, V domains shown)
VH: B1 VH with Q3K, T93S
VL: B1 VL
notes: expressed from pANTVhG1 and pANTVk vectors (IgG1, kappa) in HEK293 cells; also called AT-VH1/AT-Vk2

IC50 [1]: 1.48 nM
B9: deimmunized humanized antibody huAbF46 including a combination of AT-VH1 and AT-Vk1 (antibody, IgG1, V domains shown)
VH: B1 VH with Q3K, T93S
VL: B1 VL with S12T, I21M
notes: expressed from pANTVhG1 and pANTVk vectors (IgG1, kappa) in HEK293 cells; also called AT-VH1/AT-Vk1

IC50 [1]: 1.41 nM
B12: deimmunized humanized antibody huAbF46 including a combination of AT-VH4 and AT-Vk4 (antibody, IgG1, V domains shown)
VH: B1 VH with S79N
VL: B1 VL with L3Q, I69S
notes: expressed from pANTVhG1 and pANTVk vectors (IgG1, kappa) in HEK293 cells; also called AT-VH4/AT-Vk4

IC50 [1]: 1.46 nM
B15: deimmunized humanized antibody huAbF46 including a combination of AT-VH5 and AT-Vk2 (antibody, IgG1, V domains shown)
VH: B1 VH with S79N, T95V
VL: B1 VL
notes: expressed from pANTVhG1 and pANTVk vectors (IgG1, kappa) in HEK293 cells; also called AT-VH5/AT-Vk2

IC50 [1]: 1.57 nM
B16: deimmunized humanized antibody huAbF46 including a combination of AT-VH5 and AT-Vk3 (antibody, IgG1, V domains shown)
VH: B1 VH with S79N, T95V
VL: B1 VL with L3Q
notes: expressed from pANTVhG1 and pANTVk vectors (IgG1, kappa) in HEK293 cells; also called AT-VH5/AT-Vk3

IC50 [1]: 1.69 nM
B19: deimmunized humanized antibody huAbF46 including a combination of AT-VH2 and AT-Vk3 (antibody, IgG1, V domains shown)
VH: B1 VH with Q3K
VL: B1 VL with L3Q
notes: expressed from pANTVhG1 and pANTVk vectors (IgG1, kappa) in HEK293 cells; also called AT-VH2/AT-Vk3

IC50 [1]: 1.37 nM
B21: deimmunized humanized antibody huAbF46 including a combination of AT-VH2 and AT-Vk4 (antibody, IgG1, V domains shown)
VH: B1 VH with Q3K
VL: B1 VL with L3Q, I69S
notes: expressed from pANTVhG1 and pANTVk vectors (IgG1, kappa) in HEK293 cells; also called AT-VH2/AT-Vk4
